Tests used:
Type in all cases: cell-based, human
[1] = system: same donor BOEC: PBMC co-culture; experiment: MSD 9-plex pro-inflammatory cytokine array on matched BOEC:PBMC co-cultures; details: 10 μg/ml, 24 h, FIG. 5
Protocol: FIG. 5A-C Cytokine release data from MSD analysis. Measurements were carried out using an MSD 10-spot 9-plex Pro-Inflammatory Assay (see methods). Data are mean±SEM (n=5 from matched 5 donors). Statistical testing was carried out between 5 donors by one-way ANOVA followed by Dunnett's multiple comparison test comparing responses with drug to respective control only (*p<0.05).
Plates were then incubated for 24 h.
To further analyse the cytokines released by matched BOEC and PBMC co-cultures as well as respective monocultures following stimulation with biologics an MSD (Meso Scale Discovery, USA) platform analysis was used. Human pro-inflammatory 9-Plex MULTISPOT 96-well-10 spot MSD plates were purchased from MSD (Gaithersburg, Md.) (Cat no. N05007A-1). Samples were diluted 1:10 in Lonza-EGM2 10% FBS/RPMI mix and added to the MSD plate. The immunoassay was carried out according to manufacturer's instructions. Plates were read using an MSC Sector Imager 2400 and analysed using MSD Discovery® Workbench software. Cytokines analysed were IL-2, CXCL8 (IL-8), IL-12q70, IL-1β, GM-CSF, IFNγ, IL-6, IL-10 and TNFα.

HUVEC = HUVEC mono-culture, CXCL8 by ELISA; details: 10 μg/ml, 24 h, FIG. 3A
Protocol: (§1) FIG. 3A-B HUVEC (A) and mixed donor BOEC (B) plus PBMC mono and co-culture bioassay data. PBMCs were added to HUVEC (A) or BOEC from different donors (B) after 24 h. For monocultures vehicle media was added. At the same time cultures were treated +/− vehicle, ANC28 (TGN1412-like superagonist) (10 μg/ml), Campath (10 μg/ml), Avastin (10 μg/ml) or Arzerra (10 μg/ml) for 24 h. Data are mean±SEM (A; n=3) (B; n=3). Statistical significance between treatments was determined by one-way ANOVA followed by Bonferroni's Multiple Comparison test (*p<0.05)
Plates were incubated at 37° C., 5% CO2.
In order to compare data from our same-donor assay with the current state-of-the-art assays^1,3,17, we ran parallel experiments using HUVECs as the detector endothelial cell model. PBMCs again released low levels of CXCL8 that was not increased by any of the biotherapetuics tested (FIG. 3A). HUVEC released relatively higher basal levels of CXCL8 that were not increased by anti-CD28 superagonist or Campath. […] The basis for these different results cannot be investigated further as HUVEC donors, unlike BOEC, cannot be easily traced and studied further. Similar results were found when PBMCs were added to BOECs from a different donor. Importantly, co-cultures of HUVEC and PBMC (from two donors) responded to TGN1412-like superagonist (ANC28) and Campath. This captures fully what is already know for this assay which, since the TGN1412 phase 1 trial, is as used as the gold standard assay to test biotherapeutics at the preclinical stage^1,17,18. […] This immune activation response in control or other conditions is likely due to the mixing of tissue from different donors and is a serious limitation for the HUVEC or other similar assays, but one that is totally avoided by our ‘same donor’ assay.

[2] = system: co-cultures of HUVEC and PBMC; experiment: HUVEC plus PBMC co-culture assay (two donors), CXCL8; details: HUVEC + PBMC co-culture from two donors, 10 μg/ml, 24 h, FIG. 3A
Protocol: as §1
Supernatants were discarded from each tube.
In order to compare data from our same-donor assay with the current state-of-the-art assays^1,3,17, we ran parallel experiments using HUVECs as the detector endothelial cell model. PBMCs again released low levels of CXCL8 that was not increased by any of the biotherapetuics tested (FIG. 3A). HUVEC released relatively higher basal levels of CXCL8 that were not increased by anti-CD28 superagonist or Campath. […] The basis for these different results cannot be investigated further as HUVEC donors, unlike BOEC, cannot be easily traced and studied further. Similar results were found when PBMCs were added to BOECs from a different donor. Importantly, co-cultures of HUVEC and PBMC (from two donors) responded to TGN1412-like superagonist (ANC28) and Campath. […]

Row | Substance | GM-CSF release [1] | IL-6 release [1] | IL-8 release [1] | CXCL8 release (HUVEC) | CXCL8 release [2]
1 | alemtuzumab [Campath] | tendency to elevate | tendency to elevate | tendency to elevate | not increased | responded
2 | bevacizumab [Avastin] | – | – | – | tendency to respond | –
3 | ofatumumab [Arzerra] | – | – | – | tendency to respond | –

— patent US9835616B2, “In vitro method for assessing cytokine storm responses” (IMPERIAL INNOVATIONS LTD., priority 2013, dated 2017)
